{"source": "paper PMC10897178", "about": "“FANCJ DNA helicase is recruited to the replisome by AND-1 to ensure genome stability” (EMBO Reports, 2024)", "binders": {"B1": {"name": "6xHis-tagged AND-1 SepB (domain or fragment, human, UniProt O75717 336-826, looked up)", "chain": "GDFLNDNAVEIPSFSKGIINDDEDDEDLMMASGRPRQRSHILEDDENSVDISMLKTGSSLLKEEEEDGQEGSIHNLPLVTSQRPFYDGPMPTPRQKPFQSGSTPLHLTHRFMVWNSIGIIRCYNDEQDNAIDVEFHDTSIHHATHLSNTLNYTIADLSHEAILLACESTDELASKLHCLHFSSWDSSKEWIIDLPQNEDIEAICLGQGWAAAATSALLLRLFTIGGVQKEVFSLAGPVVSMAGHGEQLFIVYHRGTGFDGDQCLGVQLLELGKKKKQILHGDPLPLTRKSYLAWIGFSAEGTPCYVDSEGIVRMLNRGLGNTWTPICNTREHCKGKSDHYWVVGIHENPQQLRCIPCKGSRFPPTLPRPAVAILSFKLPYCQIATEKGQMEEQFWRSVIFHNHLDYLAKNGYEYEESTKNQATKEQQELLMKMLALSCKLEREFRCVELADLMTQNAVNLAIKYASRSRKLILAQKLSELAVEKAAELTAT", "notes": "AND-1 (WDHD1), human, SepB domain, amino-acid residues 336-826; pRSF-Duet-1 construct from Luca Pellegrini; purification as in Kilkenny et al, 2017; also called 6xHis-SepB; AND-1 SepB domain; source: E. coli BL21 (DE3), purified"}}, "conditions_in_all_cases": "both partners purified", "key": {"[1]": {"target": "T1, Flag-tagged FANCJ wild type (human, UniProt Q9BX63 1-1249)", "T1 construct": "FANCJ (BRIP1, BACH1) DNA helicase, human, open reading frame; purified as full-length protein; Plasmid from Hisao Masai (Uno et al, 2012); also called FANCJ WT; Flag-FANCJ WT; source: HEK 293T, transiently transfected (pCSII-EF-MCS): in whole-cell extract or nuclear fraction; also purified (anti-Flag M2 agarose, 3x Flag-peptide elution)", "T1 sequence (looked up)": "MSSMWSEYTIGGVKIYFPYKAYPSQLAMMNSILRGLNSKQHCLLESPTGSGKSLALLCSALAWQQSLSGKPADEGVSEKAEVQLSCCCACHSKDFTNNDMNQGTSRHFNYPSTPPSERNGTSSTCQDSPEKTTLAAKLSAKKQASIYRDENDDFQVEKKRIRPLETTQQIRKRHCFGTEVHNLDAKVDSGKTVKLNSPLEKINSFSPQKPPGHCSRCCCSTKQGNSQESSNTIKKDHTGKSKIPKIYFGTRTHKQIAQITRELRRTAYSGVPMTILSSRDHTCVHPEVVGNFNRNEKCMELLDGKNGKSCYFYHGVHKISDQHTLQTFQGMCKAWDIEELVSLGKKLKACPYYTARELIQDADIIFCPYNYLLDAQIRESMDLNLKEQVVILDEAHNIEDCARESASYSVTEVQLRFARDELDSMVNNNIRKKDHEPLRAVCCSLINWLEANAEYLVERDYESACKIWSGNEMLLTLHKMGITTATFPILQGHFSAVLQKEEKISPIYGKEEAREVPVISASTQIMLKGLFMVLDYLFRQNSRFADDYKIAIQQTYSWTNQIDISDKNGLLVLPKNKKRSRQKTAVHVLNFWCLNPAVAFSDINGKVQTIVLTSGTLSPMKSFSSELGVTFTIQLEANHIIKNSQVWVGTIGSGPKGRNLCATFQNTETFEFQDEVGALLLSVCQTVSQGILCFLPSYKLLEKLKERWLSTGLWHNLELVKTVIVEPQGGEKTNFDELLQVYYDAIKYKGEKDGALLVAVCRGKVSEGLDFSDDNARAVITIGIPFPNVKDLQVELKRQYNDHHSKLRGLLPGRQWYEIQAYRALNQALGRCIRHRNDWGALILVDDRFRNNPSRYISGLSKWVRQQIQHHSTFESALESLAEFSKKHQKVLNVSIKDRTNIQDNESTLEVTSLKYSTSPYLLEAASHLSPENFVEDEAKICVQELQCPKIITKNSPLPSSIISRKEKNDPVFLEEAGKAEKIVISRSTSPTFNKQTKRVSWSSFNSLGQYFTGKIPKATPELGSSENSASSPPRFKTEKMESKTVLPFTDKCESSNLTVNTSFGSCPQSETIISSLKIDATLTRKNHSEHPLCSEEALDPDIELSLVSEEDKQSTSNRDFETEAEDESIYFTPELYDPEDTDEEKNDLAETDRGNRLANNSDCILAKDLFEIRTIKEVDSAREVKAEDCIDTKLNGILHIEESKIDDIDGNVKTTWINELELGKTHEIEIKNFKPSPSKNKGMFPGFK", "experiment": "pull-down; Flag-tagged protein (2 µg) on anti-Flag M2 agarose beads, purified AND-1 SepB (4 µg) added; 20 mM HEPES-NaOH pH 7.2, 150 mM NaCl, 0.1% Igepal, 1% BSA, 4 °C; Western blot"}, "6xHis-tagged AND-1 SepB": {"target": "B1", "experiment": "pull-down; GST-FANCJ CIP box on Glutathione Sepharose 4B beads, purified AND-1 SepB (0.5 mg in 500 μL) added; PD Buffer 1 with 1% BSA, 1 h at 4 °C; SDS-PAGE, Coomassie"}, "[2]": {"target": "T1, Flag-tagged FANCJ wild type", "experiment": "pull-down; His10-Myc-AND-1 (12 μg) on c-Myc magnetic beads, purified FANCJ (4 μg) added; PBS, 5% glycerol, 0.5 mM TCEP, 0.2% Igepal, Benzonase, 2 h at 4 °C; Western blot"}}, "data": [{"binder": "B1", "values": [{"measurement": "binding result", "setting": "[1]", "value": "binds"}]}, {"binder": "GEKTNFDELLQVYYDAIK (domain or fragment, human, UniProt Q9BX63 730-747, looked up, FANCJ (BRIP1), human, CIP box, amino-acid residues 730-747; also called GST-CIP box WT; source: transformed cells cultured in LB medium, IPTG-induced (pGEX-6P-1); captured from the soluble extract on Glutathione Sepharose 4B beads)", "note": "[GST-FANCJ CIP box wild type]", "values": [{"measurement": "binding result", "setting": "6xHis-tagged AND-1 SepB", "value": "binds"}]}, {"binder": "full-length 10xHis-Myc-tagged AND-1 (natural protein, human, UniProt O75717 1-1129, looked up, AND-1 (WDHD1), human, full length, amino-acid residues 1-1129; pFBDM construct from Luca Pellegrini (Kilkenny et al, 2017); also called His10-Myc-tagged AND-1; AND-1 full-length; source: High-Five insect cells, baculovirus, purified (Ni-NTA, HiTrap Q)) MPATRKPMRYGHTEGHTEVCFDDSGSFIVTCGSDGDVRIWEDLDDDDPKFINVGEKAYSCALKSGKLVTAVSNNTIQVHTFPEGVPDGILTRFTTNANHVVFNGDGTKIAAGSSDFLVKIVDVMDSSQQKTFRGHDAPVLSLSFDPKDIFLASASCDGSVRVWQISDQTCAISWPLLQKCNDVINAKSICRLAWQPKSGKLLAIPVEKSVKLYRRESWSHQFDLSDNFISQTLNIVTWSPCGQYLAAGSINGLIIVWNVETKDCMERVKHEKGYAICGLAWHPTCGRISYTDAEGNLGLLENVCDPSGKTSSSKVSSRVEKDYNDLFDGDDMSNAGDFLNDNAVEIPSFSKGIINDDEDDEDLMMASGRPRQRSHILEDDENSVDISMLKTGSSLLKEEEEDGQEGSIHNLPLVTSQRPFYDGPMPTPRQKPFQSGSTPLHLTHRFMVWNSIGIIRCYNDEQDNAIDVEFHDTSIHHATHLSNTLNYTIADLSHEAILLACESTDELASKLHCLHFSSWDSSKEWIIDLPQNEDIEAICLGQGWAAAATSALLLRLFTIGGVQKEVFSLAGPVVSMAGHGEQLFIVYHRGTGFDGDQCLGVQLLELGKKKKQILHGDPLPLTRKSYLAWIGFSAEGTPCYVDSEGIVRMLNRGLGNTWTPICNTREHCKGKSDHYWVVGIHENPQQLRCIPCKGSRFPPTLPRPAVAILSFKLPYCQIATEKGQMEEQFWRSVIFHNHLDYLAKNGYEYEESTKNQATKEQQELLMKMLALSCKLEREFRCVELADLMTQNAVNLAIKYASRSRKLILAQKLSELAVEKAAELTATQVEEEEEEEDFRKKLNAGYSNTATEWSQPRFRNQVEEDAEDSGEADDEEKPEIHKPGQNSFSKSTNSSDVSAKSGAVTFSSQGRVNPFKVSASSKEPAMSMNSARSTNILDNMGKSSKKSTALSRTTNNEKSPIIKPLIPKPKPKQASAASYFQKRNSQTNKTEEVKEENLKNVLSETPAICPPQNTENQRPKTGFQMWLEENRSNILSDNPDFSDEADIIKEGMIRFRVLSTEERKVWANKAKGETASEGTEAKKRKRVVDESDETENQEEKAKENLNLSKKQKPLDFSTNQKLSAFAFKQE", "values": [{"measurement": "binding result", "setting": "[2]", "value": "binds"}]}]}
